In article PMC4725365:
One block for each substance: values may come before it.

What was measured:
[1] = molecular target: A1-MAGE-A3 (HLA-A*0101 with the MAGE-A3 peptide …), biotinylated; assay: SPR (single cycle kinetics); details: 25 °C; approximately 150 RUs of biotinylated pMHC immobilised onto a CM5 amine chip
[2] = molecular target: A1-Titin (HLA-A*0101 with the Titin peptide …), biotinylated; assay: SPR (single cycle kinetics); details: 25 °C; approximately 150 RUs of biotinylated pMHC immobilised onto a CM5 amine chip
[3] = molecular target: A1-Titin (HLA-A*0101 with the Titin peptide ), biotinylated; assay: SPR
[4] = molecular target: A1-MAGE-A3 (HLA-A*0101 with the MAGE-A3 peptide ), biotinylated; assay: SPR

Substance: MAG-IC3 TCR F51T
Kd [1]: 3.2 nM
other: t1/2 [1]: 66 min

Substance: MAG-IC3 TCR F51W
other: t1/2 [1]: 20 min
Kd [2]: 172 nM
other: t1/2 [2]: 1.5 min

Substance: MAG-IC3 TCR N97E
other: t1/2 [1]: 14 min
Kd [2]: 743 nM

Substance: MAG-IC3 TCR R31L
Kd [1]: 13.4 nM
Kd [2]: 93 nM

Substance: MAG-IC3 TCR mutant F51T (β chain)
Kd [3]: 97.6 nM

Substance: MAG-IC3 TCR mutant N97E (β chain)
Kd [4]: 35 nM

Substance: MAG-IC3 TCR mutant N97Q (β chain)
Kd [3]: 601 nM

The next lines start with the values.

Kd [2]: 916 nM
Substance: MAG-IC3 TCR N97D

Kd [1]: 59 nM
Substance: MAG-IC3 TCR N97Q

Kd [4]: 8.4 nM
Substance: MAG-IC3 TCR mutant F51W (β chain)

Kd [4]: 99.3 nM
Substance: MAG-IC3 TCR mutant N97D (β chain)

Kd [4]: 6.2 nM
Kd [3]: 100 nM
Substance: MAG-IC3 TCR mutant R31W (β chain)
